Measured values published in publication PMC10576089, “Integrative solution structure of PTBP1-IRES complex reveals strong compaction and ordering with residual conformational flexibility”.

B1: EMCV-IRES-DtoF (structured_RNA)
RNA: UACUGGCCGAAGCCGCUUGGAAUAAGGCCGGUGUGCGUUUGUCUAUAUGUUAUUUUCCACCAUAUUGCCGUCUUUUGGCAAUGUG

Tests used:
PTBP1 (hnRNP I) = PTBP1 (hnRNP I) (UniProt P26599-1 1-531, C250S;C251S); experiment: NMR; SAXS/SANS; CLIR-MS/MS; integrative structure; ensemble in Zenodo 10.5281/zenodo.7798970; NMR/SANS: 10 mM NaPO4 pH 6.5, 20 mM NaCl, 1-2 mM DTT; protein NMR at 313/323 K, imino spectra 278-293 K; DEER 1:1 d8-glycerol at 50 K; SAS 23 C; settings: protein: recombinant; stem-loops D, E and F with single-stranded linkers
Sequence of PTBP1 (hnRNP I) (P26599 other isoform, or with tags, fused parts or gaps C250S;C251S): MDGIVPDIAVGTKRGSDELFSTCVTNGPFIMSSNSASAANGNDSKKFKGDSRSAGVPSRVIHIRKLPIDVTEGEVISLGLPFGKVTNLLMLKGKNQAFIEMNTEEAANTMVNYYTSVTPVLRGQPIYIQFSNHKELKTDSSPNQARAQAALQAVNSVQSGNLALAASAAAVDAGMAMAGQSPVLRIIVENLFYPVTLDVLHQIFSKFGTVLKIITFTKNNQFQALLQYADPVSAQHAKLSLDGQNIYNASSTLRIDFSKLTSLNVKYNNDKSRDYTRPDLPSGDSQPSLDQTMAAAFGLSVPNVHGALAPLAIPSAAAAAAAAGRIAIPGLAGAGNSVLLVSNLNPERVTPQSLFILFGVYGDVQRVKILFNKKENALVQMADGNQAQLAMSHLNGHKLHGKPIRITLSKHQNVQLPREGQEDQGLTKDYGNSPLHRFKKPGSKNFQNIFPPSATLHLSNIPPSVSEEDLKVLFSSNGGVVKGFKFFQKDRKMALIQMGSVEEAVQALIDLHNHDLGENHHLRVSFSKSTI

PTBP1 RRM1 = PTBP1 RRM1 (UniProt P26599-1 41-163); experiment: NMR (intermolecular NOEs); binding register confirmed; NMR/SANS: 10 mM NaPO4 pH 6.5, 20 mM NaCl, 1-2 mM DTT; protein NMR at 313/323 K, imino spectra 278-293 K; DEER 1:1 d8-glycerol at 50 K; SAS 23 C; settings: protein: recombinant; hairpin
Sequence of PTBP1 RRM1 (P26599 41-163): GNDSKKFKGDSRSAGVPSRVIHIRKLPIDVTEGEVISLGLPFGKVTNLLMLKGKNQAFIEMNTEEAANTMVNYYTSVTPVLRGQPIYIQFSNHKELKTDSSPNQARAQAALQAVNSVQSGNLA

Binder	binding result (PTBP1 (hnRNP I))	binding result (PTBP1 RRM1)
B1	binds	
GGAGCGUUUGUCUAUAUGUUCC (structured_RNA) [SLE]		binds
